According to publication PMC6722932 (Toxins, 2019):

Target: the molecule itself
Assay: negative-stain electron microscopy; 7 uM lysenin incubated with MLVs of SM/DOPC/cholesterol (1:2:1) for 30 min at 20 °C, with or without 10 mM DTT; fixed with 1% glutaraldehyde, stained with 2% uranyl acetate

B1: lysenin^WT (natural protein)
chain: MSAKAAEGYEQIEVDVVAVWKEGYVYENRGSTSVDQKITITKGMKNVNSETRTVTATHSIGSTISTGDAFEIGSVEVSYSHSHEESQVSMTETEVYESKVIEHTITIPPTSKFTRWQLNADVGGADIEYMYLIDEVTPIGGTQSIPQVITSRAKIIVGRQIILGKTEIRIKHAERKEYMTVVSRKSWPAATLGHSKLFKFVLYEDWGGFRIKTLNTMYSGYEYAYSSDQGGIYFDQGTDNPKQRWAINKSLPLRHGDVVTFMNKYFTRSGLCYDDGPATNVYCLDKREDKWILEVVG
notes: also called recombinant lysenin; wild-type lysenin; source: E. coli BL21(DE3), purified (Ni Sepharose 6 Fast Flow)
  binding result: binds
